For series [1], the system named is MS2 coat protein. The experiment in a line: apparent KD of MS2 coat protein; designed switch direction (-1 OFF switch, 1 ON switch): 1; higher = weaker reporter binding. As to conditions: Eterna round: R98. As to the method: (§1)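 RNA-MaP: designed FMN/MS2 RNA switches (84 nt design region) are transcribed on-chip within common flanks and titrated with SNAP-549-labelled MS2 coat protein (about 1-3000 nM) in 100 mM Tris pH 7.5, 80 mM KCl, 4 mM MgCl2, without or with 200 uM FMN. Median apparent KD per design; activation ratio = KD,OFF / KD,ON.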

The test system of series [2] is MS2 coat protein. Nature of the series: apparent KD of MS2 coat protein; higher = weaker reporter binding. As to conditions: Eterna round: R101. As to the method: as §1

Turning to “AAAACAUGAGGAUCACCCAUGUAAAGAUCGGUUAAUAAAAGUGAGGAUAUACAAAAUUUUAUAUAGUAGAAGGCACUGGGUACA [JR_SSNG3_Sub002]”, the “apparent KD of MS2 coat protein” value with MS2 coat protein [1] (input ligand: FMN 200 uM) came to 29.7 nM; with MS2 coat protein [1] (input ligand: none) it was 28.3 nM.
For the sequence “AAAACAUGAGGAUCACCCAUGUAAUGAUCGGUUAAUAGAAGUGAGGAUAUGCUUAAAAUAAGGUAGCAGAAGGCACUGGGUACA [JR_SSNG3_Sub041]”, the entries for the “apparent KD of MS2 coat protein” value in the series on MS2 coat protein [1] (input ligand: FMN 200 uM) and in the series with MS2 coat protein [1] (input ligand: none) were 31.3 nM and 28.1 nM, respectively.
The matching figures for “AAAUAAAAUAUAGGAUAUGGAAACAUGAGGAUCACCCAUGUAAAAUAAGAUAAAUAAUAAUAUAACCAGAAGGAUAAAAUAUAA [LRO003_SS NG 2]”: 53.3 nM and 30 nM.
On the same counts, the results for “AAGCAAACAUGAGGAUCACCCAUGUAACUGCUUUUGGCGACACAGGAUAUACAGCGACAUUGGCGGUAGAAGGGUGAUUGAAGU [Araisleen]” are 51.1 nM and 22.2 nM.
Take “ACCGGCACUUACAUGAGGAUCACCCAUGUGUGCAAUCGGACACAGGAUAUCCAUGGUAAGUAUCGGGAGAAGGGUGGAAAGAAA [Reustion]”: the “apparent KD of MS2 coat protein” value in the series on MS2 coat protein [1] (input ligand: FMN 200 uM) came to 258 nM; in the series on MS2 coat protein [1] (input ligand: none), 142 nM.
As to “AGAACAUGAGGAUCACCCAUGUGAAGGUCGGCGUAUAAGGGUGAGGAUAUGCUUAAAAUAAGGAAGCAGAAGGUGCUUGGUGCG [SameState #79 NG3]”, the “apparent KD of MS2 coat protein” value with MS2 coat protein [1] (input ligand: FMN 200 uM) was 102 nM; with MS2 coat protein [1] (input ligand: none), 137 nM.
On the same counts, the results for “AUCAAUCACAUAGGAUAUAGAAUAUUAUAUUUUUACAUGAGGAUCACCCAUGUUUUAUUGGGAUUCUAGAAGGAUGAGUAAUAA [JR_SSNG2_Sub055Nu]” are 96.9 nM and 147 nM.
The matching figures for “CAACAAUGGUGAGGAUAUGCAAAGGAUCACCUUGUAGAAGGCAUCAGGUAGAAGGUGCAGAGGAUCACCCUGUAAGGAUAUAUC [pwkr2 ssNG1 DX.21]”: 69.9 nM and 176 nM.
“CAUGUCCACACAGGAUAUGCUGGACUUUGUCCAGCAGAAGGGUGAACAUGAGGAUCACCCAUGUAAAGGACAUGUAUAUUUAAU [Denovo 16]”: the “apparent KD of MS2 coat protein” value was 93.3 nM in the series on MS2 coat protein [1] (input ligand: FMN 200 uM) and 715 nM with MS2 coat protein [1] (input ligand: none).
On the same counts, the results for “CCUGACACUUGAGGAUAUGCUCAGGAAUACUGAGCAGAAGGCAGGGAAACCUGAGGAUCACCCAGGUAAGUCAGGAAUAAUAAA [Same State NG1 - A3C, U17G Submission 2A]” are 21.9 nM and 62 nM.
On the same counts, the results for “CGCUGUAAUGCAGGAUAUGCAUUGGAUUACAAUGCAGAAGGGCGAUUACAUGAGGAUCACCCAUGUAUAAACAGUGAAGAAGAG [Hyphema mod 5]” are 26.9 nM and 51.6 nM.
With “CGCUGUCGCGCAGGAUAUGCAUUGGAUUACAAUGCAGAAGGGCGAUUACAUGAGGAUCACCCAUGUGUAGACAGUGAAGAAGAG [SameState #31 NG1]”, the “apparent KD of MS2 coat protein” value worked out at 28.4 nM in the series on MS2 coat protein [1] (input ligand: FMN 200 uM) and 253 nM with MS2 coat protein [1] (input ligand: none).
The matching figures for “CUAAUAUAGUGAGGAUAUGCACAGGAUCACCGUGUAGAAGGCAUCAGGUAGAAGGUGCAGAGGAUCACCCUGUAAGGAUAUACA [pwkr2 ssNG1 DX.5]”: 102 nM and 385 nM.
The matching figures for “CUAGCAUACCGAGGAUAUUCAUAUAAUAAAUAAACAUGAGGAUCACCCAUGUGGCGAAAGCCUAGGGAGAAGGCGGAAUGCUAU [salish99_SSNG2_r2_111]”: 23.8 nM and 210 nM.
On the same counts, the results for “CUCGUUGUCACAGGAUAUGCCGCCGGACAUGAGGAUCACCCAUGUACCCGCUUGAGAAAACUGCGGUAGAAGGGUGACUUAUAA [Erriisin]” are 46 nM and 110 nM.
Regarding “GACGAAUUCUUAGGAUAUCGAGUGGAAUACACUCGAGAAGGAAGAUAUACCUGAGGAUCACCCAGGUAAAACUGGACGUCAAUA [Same State NG1 - A3C, U17G Submission 8D A68U]”, the “apparent KD of MS2 coat protein” value in the series with MS2 coat protein [1] (input ligand: FMN 200 uM) amounted to 46.7 nM; in the series on MS2 coat protein [1] (input ligand: none), 193 nM.
On the same counts, the results for “GCCAUCGUAUGAGGAUAUGGCACCGUUUCGGUGCCAGAAGGCAUGUCUUUUGACAUGAGGAUCACCCAUGUAGUUAAGAUGGCA [Pyrimidine booster 4]” are 147 nM and 637 nM.
As for “GCCGUAAUAGCAGGAUAUGCUCCGGUUGCUCAUACAUGAGGAUCACCCAUGUCACGUGCGGUGGUGCAGAAGGGUUGAAGCGAU [Ausaso]”, the “apparent KD of MS2 coat protein” value in the series on MS2 coat protein [1] (input ligand: FMN 200 uM) is 122 nM; in the series with MS2 coat protein [1] (input ligand: none), 465 nM.
On the same counts, the results for “GCUUGCGACGCAGGAUAUGGGUGCCUGAACACGAGGAUCACCCGUGUAGAGGAAGCGAAAAGCUCUCAGAAGGGCGUCGCAGGC [United States 6 - Jieux - Same State NG 2]” are 19.8 nM and 50.5 nM.
On the same counts, the results for “GGAGACCUCACAGGAUAUGCUGGACUUUGUCCAGCAGAAGGGUGUUUAACAUGAGGAUCACCCAUGUAGGUCUCCAAAUUUAAU [Denovo 60]” are 46 nM and 707 nM.
As for “GGAUAGGACAGAGGAUAUACGUGCUAGAGAUACUAGCAAAAUAUCCUCACAUGAGGAUCACCCAUGUAGAAGGCUGUCCUAUCG (puzzle (switch architecture): Exclusion NG 2)”, the “apparent KD of MS2 coat protein” value is 20.1 nM with MS2 coat protein [2] (input ligand: FMN 200 uM) and 5.49 nM with MS2 coat protein [2] (input ligand: none).
On the same counts, the results for “GGAUAGGACAGAGGAUAUACGUGCUAGAGAUACUAGCAAAAUUUCCUCACAUGAGGAUCACCCAUGUAGAAGGCGGUCCUAUCG (puzzle (switch architecture): Exclusion NG 2)” are 8.8 nM and 5.37 nM.
The matching figures for “GGAUAGGACAGAGGAUAUACGUGCUAGAGAUACUAGCAAAAUUUCCUCACAUGAGGAUCACCCAUGUAGAAGGCUGUCCUAUCU (puzzle (switch architecture): Exclusion NG 2)”: 395 nM and 18.6 nM.
The matching figures for “GGCAGCUUUCAGAAGGGAGUGCGAUAAUCGCACUCAGGAUAUGAGGAUCACCCAUAUCAUGCUGCCACUGAGGCAAAGCCUCAG [#SharedSequence - IEx NG 3-1] (puzzle (switch architecture): Inverted Exclusion NG 1)”: 13.3 nM and 11 nM.
“GGUCCAUCAUGAGGAUAUGGCACCUUAUUUGUGCCAGAAGGCAUGUCAAUAGACAUGAGGAUCACCCAUGUAAUAAAUUGGACC [EliMod 3 - Jieux - Same State NG 1]”: the “apparent KD of MS2 coat protein” value in the series on MS2 coat protein [1] (input ligand: FMN 200 uM) stood at 54.1 nM; in the series with MS2 coat protein [1] (input ligand: none), 642 nM.
The matching figures for “GGUCUGAUAUGAGGAUAUGCUCAGGAUAACUGAGCAGAAGGCAUGUGAAAACAUGAGGAUCACCCAUGUAUGAUCUACAGACCA [Same State NG1 - WT Aptamer 4D]”: 22.7 nM and 55.6 nM.
On to “GUACAUGAGGAUCACCCAUGUCACAUAACGUCCGAGGAUACCAGAAGGGCAGACGUUACGACGGUGCAGGAUAUGGGCUCCUAA [Beceanbe] (puzzle (switch architecture): Inverted Same State NG 3)”, for which the “apparent KD of MS2 coat protein” value with MS2 coat protein [2] (input ligand: FMN 200 uM) turned out to be 37.2 nM; in the series on MS2 coat protein [2] (input ligand: none), 56.6 nM.
The matching figures for “GUAGCAGCGGCGCCCUCGUAGACAUGAGGAUCACCCAUGUCGCAGGAUAUCAGAAGCGGAGCUGCUGAGAAGGGCGACAUAAGG [Quorus] (puzzle (switch architecture): Exclusion NG 3)”: 13.8 nM and 7.25 nM.
For “GUAGCAUACCGAGGAUAUUCAUACCAUAAAUGGACAUGAGGAUCACCCAUGUGGCGAAAGCCUUGGGAGAAGGCGGAAUGCUAC [EliMod 3 - Jieux - Same State NG 2]”, the “apparent KD of MS2 coat protein” value with MS2 coat protein [1] (input ligand: FMN 200 uM) was found to be 25.2 nM; in the series on MS2 coat protein [1] (input ligand: none), 673 nM.
“GUAGCAUACGGAGGAUAUUCAUACCGGAAACGGACAUGAGGAUCACCCAUGUGGCGAAAGCCUUGGGAGAAGGCCGUAUGCUAC [#DoubleMagnetSystem - Mat - Same State NG 2 - JL Mod - D 61] (puzzle (switch architecture): Same State NG 2)”: the “apparent KD of MS2 coat protein” value worked out at 8.06 nM in the series with MS2 coat protein [2] (input ligand: FMN 200 uM) and 187 nM in the series with MS2 coat protein [2] (input ligand: none).
On the same counts, the results for “UGAUAGGACAGAGGAUAUACGUGCUAGAGAUACUAGCAAAAUUUCCUCACAUGAGGAUCACCCAUGUAGAAGGCUGUCCUAUCU [#PyrimidineMS2Turnoff - Eli xng 2.01 rotated] (puzzle (switch architecture): Exclusion NG 2)” are 533 nM and 16.5 nM.
On the same counts, the results for “UGGUACUAGGGAGGAUAUGGGAAGAUACAUGAGGAUCACCCAUGUUUAAGAAUGCCGAGAGGCAACUAGAAGGCCCUAGUACCU (puzzle (switch architecture): Same State NG 2)” are 18.9 nM and 437 nM.
The matching figures for “UUGGACGUCGUAGGAUAUGUAGGAUAUUCCUACAUGAGGAUCACCCAUGUUGAAAUGGAAGAAGGACAGAAGGACGAUGUCCAU (puzzle (switch architecture): Same State NG 2)”: 3.83 nM and 19.4 nM.
On to “UUUAAUAUUAUAGGAUAUGGAUACGAUACGUAUCCAGAAGGGUGAUUAUAAUAUAAUCUAUACAUGAGGAUCACCCAUGUUUAU [AtrosYaY8] (puzzle (switch architecture): Same State NG 1)”, for which the “apparent KD of MS2 coat protein” value in the series with MS2 coat protein [2] (input ligand: FMN 200 uM) amounted to 84.8 nM; in the series on MS2 coat protein [2] (input ligand: none), 205 nM.

Values taken from the supplement of paper PMC9170038.
